From PMC2596486

Legend:
[1] = target: rHA subtype H1 (A/New Caledonia/20/99) (influenza A virus A/New Caledonia/20/99 (H1)) (UniProt Q6WG00); test: SPR
[2] = target: rHA subtype H1 (A/New Caledonia/20/99) (Influenza A virus A/New Caledonia/20/1999 (H1N1)) (UniProt Q6WG00); test: SPR

Substance | Kd [1] | koff [1] | kon [1] | Kd [2] | koff [2] | kon [2]
CR6261 Fab | 3.8 nM | 0.0037 s⁻¹ | 980000 M⁻¹ s⁻¹ | – | – | –
CR6323 Fab | – | – | – | 3.9 nM | 0.00054 s⁻¹ | 140000 M⁻¹ s⁻¹
